Measurements taken from patent US20260297176 (published 2026).
Substitutions are numbered along the chain they refer to. In names and notes the source's numbering stands.

T1: mouse IL-11 (mouse, UniProt P47873)
T1 chain: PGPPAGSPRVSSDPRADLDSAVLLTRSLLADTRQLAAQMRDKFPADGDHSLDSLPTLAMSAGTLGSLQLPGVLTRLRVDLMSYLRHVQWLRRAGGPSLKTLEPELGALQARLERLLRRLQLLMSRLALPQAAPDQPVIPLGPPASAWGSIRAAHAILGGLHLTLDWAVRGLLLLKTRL

T2: human IL-11 (human)
T2 chain: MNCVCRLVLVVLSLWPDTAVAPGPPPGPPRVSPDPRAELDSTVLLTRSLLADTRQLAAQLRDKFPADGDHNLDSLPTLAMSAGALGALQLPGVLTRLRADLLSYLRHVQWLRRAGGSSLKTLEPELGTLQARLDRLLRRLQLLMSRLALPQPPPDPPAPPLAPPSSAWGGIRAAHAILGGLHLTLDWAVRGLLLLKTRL

B1: CSJ-A-s-10D10 (antibody, V domains shown)
VH: QVQLKESGPGLVQPSQTLSLTCTVSGFSLTNYHVHWVRQPPGKGLEWMGVMWIDGDTSYNSALRSRLSISRDTSKSQVFLKMSSLQTEDTATYYCAREGLNWFAYWGRGTLVTVSS
VL: DIQMTQSPASLSVSLEEVVTITCKASQGIDDYLSWYQQKPGKSPQLLISDVTSLADGVPSRFSGSRSGTQYSLKISRPQVDDSGIYYCLQSYSTPYTFGAGTKLELK
B2: CSI-s-9B9 (antibody, V domains shown)
VH: EVHLQQSGPELVKPGASVKMSCKASGYTFTSYVIHWVKQRPGQGLEWIGNIYPYNDDTNYNEKFKGKATLTSDKSSSTAYMELSSLTSEESAVYFCTRERATYGDLAWFAYWGQGTLVTVSA
VL: NIVLTQSPASLAVSLGQRATISCRASENIDSYGNSFMHWYQQKPGQPPKLLIYLASILESGVPARFSGSGSRTDFTLTIDPVEADDAATYYCQQNNEDPYTFGGGTKLEIK
B3: CSJ-B-s-3G8 (antibody, V domains shown)
VH: QVTLKESGPGMLQPSKTVSLTCSFSGFSMSTSGMVVSWIRQPSGKSLEWLAAIDWDGEKYYNPSLKSRLTVSKDTSNTQVFLKISSVDIADSATYYCARSGNYFDYWGQGVMVTVSS
VL: DIQMTQSPASLSASLGETVTIECRASEDIYNGLVWYQQKPGKSPQLLIYDANRLHTGVPSRFSGGGSGTQYSLKINSLQSEDVASYFCQQYYDYPNTFGAGTKLELK
B4: GVH5 (D54E)/GVL5 (antibody, V domains shown)
VH: QITLKESGPTLVKPTQTLTLTCTFSGFSLSTSGMVVGWIRQPPGKALEWLAAIDWEGEKYYSPSLKSRLTITKDTSKNQVVLTMTNMDPVDTATYYCARSGNYFEYWGQGTLVTVSS
VL: DIQMTQSPSSLSASVGDRVTITCRTSEDIYNALAWYQQKPGKAPQLLIYDANRLHIGVPSRFSGSGSGTDFTLTISSLQPEDFATYYCQQYYDYPNTFGQGTKLEIK
B5: CVH3 (D54E)/CVL3 + YTE (antibody, V domains shown)
VH: QVQLQESGPGLVKPSQTLSLTCSFSGFSLSTSGMVVSWIRQPPGKALEWLAAIDWEGEKYYNPSLKSRLTVTKDTSNTQVVLTMTNMDPVDTATYYCARSGNYFEYWGQGTLVTVSS
VL: B4 VL with I2N, S60D, P80A, F83V, T85V
B6: GVH5 (D54E)/GVL5 + YTE (antibody, V domains shown)
VH: B4 VH
VL: B4 VL
B7: CVH4 (D54E)/CVL3 + YTE (antibody, V domains shown)
VH: B5 VH with N77K, T78N
VL: B4 VL with I2N, S60D, P80A, F83V, T85V
B8: CVH3 (D54E)/CVL3 (antibody, V domains shown)
VH: B5 VH
VL: B4 VL with I2N, S60D, P80A, F83V, T85V
B9: GVH5 (D54E)/CVL3 + YTE (antibody, V domains shown)
VH: B4 VH
VL: B4 VL with I2N, S60D, P80A, F83V, T85V
B10: CSJ-A-s-2B11 (antibody, V domains shown)
VH: QVQLKESGPGLVQPSQTLSLTCTVSGFSLDNYNVHWVRQPTGGGLEWLGGIWTDGITDYTSPLRSRLSISRDTSKSQVFLKMKSLQTEDIATYYCARSYYYSLYYFDYWGQGVMVTVSS
VL: DIQMTQSPASLSASLGETVTIECRASEDIYSNLAWYQQKPGDSPQLLIYDAHRLAEGVPSRFSGSGSGTQYSLKINSLHSEDVASYFCQQYDNYNTFGVGTKLDLK
B11: CVH4 (D54E)/CVL3 (antibody, V domains shown)
VH: B5 VH with N77K, T78N
VL: B4 VL with I2N, S60D, P80A, F83V, T85V
B12: VH0/VL0 (antibody, V domains shown)
VH: B3 VH with T3I, V18L, M29L, K83Q, S85T, S86T, S92T, D105E, M112I
VL: B3 VL with I2N, A25T, G32A, V34A, T56I, G65S, Y71F, K107N
B13: GVH5 (D54E)/CVL3 (antibody, V domains shown)
VH: B4 VH
VL: B4 VL with I2N, S60D, P80A, F83V, T85V

Legend:
mouse IL-11 [1] = molecular target: T1, mouse IL-11; experiment: SPR
human IL-11 [2] = molecular target: T2, human IL-11; experiment: SPR
mouse IL-11 [3] = molecular target: T1, mouse IL-11; experiment: SPR
human IL-11 [4] = molecular target: T2, human IL-11; experiment: SPR 25C
mouse IL-11 [5] = molecular target: T1, mouse IL-11; experiment: SPR steady state
human IL-11 [6] = molecular target: T2, human IL-11; experiment: SPR
human IL-11 [7] = molecular target: T2, human IL-11; experiment: SPR

| Binder | Kd (mouse IL-11 [1]) | Kd (human IL-11 [2]) | Kd (human IL-11 [4]) | other results |
| --- | --- | --- | --- | --- |
| B1 | 0.875 nM | 0.424 nM |  |  |
| B2 | 3.77 nM | 0.145 nM |  |  |
| B3 | 0.0502 nM | 0.0174 nM |  | Kd (mouse IL-11 [3]): 0.159 nM |
| B4 |  |  | 0.0966 nM |  |
| B5 |  |  | 0.00142 nM |  |
| B6 |  |  | 0.0792 nM |  |
| B7 |  |  | 0.00334 nM |  |
| B8 |  |  | 0.00501 nM |  |
| B9 |  |  | 0.00989 nM |  |
| B10 | 28.2 nM | 0.0238 nM |  | Kd (mouse IL-11 [5]): 28.2 nM; Kd (human IL-11 [6]): 0.0213 nM; Kd (human IL-11 [7]): 0.0214 nM |
| B11 |  |  | 0.00748 nM |  |
| B12 |  |  | 0.00758 nM |  |
| B13 |  |  | 0.0181 nM |  |
